[ ]: non-standard residue; d: D form. Phe(3-Me) = Cc1cccc(C[C@H](N)C(=O)O)c1; Phe(4-Me) = Cc1ccc(C[C@H](N)C(=O)O)cc1; Phe(2-Me) = Cc1ccccc1C[C@H](N)C(=O)O; Arg(Me) = CNC(=N)NCCC[C@H](N)C(=O)O; Ala(cPr) = N[C@@H](CC1CC1)C(=O)O; Hyp = O=C(O)[C@@H]1C[C@@H](O)CN1; αMeF = C[C@](N)(Cc1ccccc1)C(=O)O; 2Pal = N[C@@H](Cc1ccccn1)C(=O)O; 3Pal = N[C@@H](Cc1cccnc1)C(=O)O; 4Pal = N[C@@H](Cc1ccncc1)C(=O)O; Cha = N[C@@H](CC1CCCCC1)C(=O)O

The test concerns the target metastin receptor (OT7T175) stably expressed on CHO/dhfr- cells (human or rat, not given). The test is described as follows: cell-based or functional assay.

Turning to “des(1)-Ac-[D-Tyr2,Hyp3,Thr5,Cha6,Ala7,Arg(Me)9,Trp10]MS10 (peptide)”, the Specific Activity (EC50 of test compound based on EC50 of Metastin (45-54)); agonist activity, intracellular calcium ion level, FLIPR (ratio to Metastin (45-54)) is 0.5.
For “des(1)-Ac-[D-Tyr2,Hyp3,Thr5,Dap7,Arg(Me)9,Trp10]MS10 (peptide)”, the Specific Activity (EC50 of test compound based on EC50 of Metastin (45-54)); agonist activity, intracellular calcium ion level, FLIPR (ratio to Metastin (45-54)) amounted to 1.3.
With “des(1)-Ac-[D-Tyr2,Hyp3,Thr5,Phe6Ψ(CH2CH2)AzaGly7,Arg(Me)9,Trp10]MS10 (peptide)”, the Specific Activity (EC50 of test compound based on EC50 of Metastin (45-54)); agonist activity, intracellular calcium ion level, FLIPR (ratio to Metastin (45-54)) is 0.6.
In the case of “des(1)-Ac-[D-Tyr2,Pro(4F)3,Thr5,Cha6,Ala(cPr)8,Arg(Me)9,Trp10]MS10 (peptide)”, the Specific Activity (EC50 of test compound based on EC50 of Metastin (45-54)); agonist activity, intracellular calcium ion level, FLIPR (ratio to Metastin (45-54)) stood at 0.4.

B1: des(1)-Ac-[D-Tyr2,Hyp3,Thr5,Arg(Me)9,Trp10]MS10 (peptide)
peptide: Ac-[dY][Hyp]NTFGL[Arg(Me)]W-NH2
As to B1, the Specific Activity (EC50 of test compound based on EC50 of Metastin (45-54)); agonist activity, intracellular calcium ion level, FLIPR (ratio to Metastin (45-54)) was determined as 1.2.

B2: des(1)-Ac-[D-Tyr2,Hyp3,Thr5,Phe(2Me)6,Arg(Me)9,Trp10]MS10 (peptide)
peptide: Ac-[dY][Hyp]NT[Phe(2-Me)]GL[Arg(Me)]W-NH2
For the molecule B2, the Specific Activity (EC50 of test compound based on EC50 of Metastin (45-54)); agonist activity, intracellular calcium ion level, FLIPR (ratio to Metastin (45-54)) stood at 0.7.

B3: des(1)-Ac-[D-Tyr2,Hyp3,Thr5,Phe6Ψ(CH2CH2)Gly7,Arg(Me)9,Trp10]MS10 (peptide)
peptide: Ac-[dY][Hyp]NTFGL[Arg(Me)]W-NH2
modifications: also: Phe5-Gly6 amide bond replaced by -CH2CH2-
For B3, the Specific Activity (EC50 of test compound based on EC50 of Metastin (45-54)); agonist activity, intracellular calcium ion level, FLIPR (ratio to Metastin (45-54)) stood at 1.3.

B4: des(1)-Ac-[D-Tyr2,Hyp3,Thr5,Ala7,Arg(Me)9,Trp10]MS10 (peptide)
peptide: Ac-[dY][Hyp]NTFAL[Arg(Me)]W-NH2
B4: the Specific Activity (EC50 of test compound based on EC50 of Metastin (45-54)); agonist activity, intracellular calcium ion level, FLIPR (ratio to Metastin (45-54)) turned out to be 0.5.

B5: des(1)-Ac-[D-Tyr2,Hyp3,Thr5,Ala(cPr)6,Arg(Me)9,Trp10]MS10 (peptide)
peptide: Ac-[dY][Hyp]NT[Ala(cPr)]GL[Arg(Me)]W-NH2
Consider B5, for which the Specific Activity (EC50 of test compound based on EC50 of Metastin (45-54)); agonist activity, intracellular calcium ion level, FLIPR (ratio to Metastin (45-54)) came to 1.9.

B6: des(1)-Ac-[D-Tyr2,Hyp3,Thr5,Pya(2)6,Arg(Me)9,Trp10]MS10 (peptide)
peptide: Ac-[dY][Hyp]NT[2Pal]GL[Arg(Me)]W-NH2
Regarding B6, the Specific Activity (EC50 of test compound based on EC50 of Metastin (45-54)); agonist activity, intracellular calcium ion level, FLIPR (ratio to Metastin (45-54)) was found to be 1.2.

B7: des(1)-Ac-[D-Tyr2,Hyp3,Thr5,Phe6Ψ((S)CHOH-(E)CH═)Gly7,Arg(Me)9,Trp10]MS10 (peptide)
peptide: Ac-[dY][Hyp]NTFGL[Arg(Me)]W-NH2
modifications: also: Phe5-Gly6 amide bond replaced by -CH(OH)-CH= ((S)-CHOH, (E) alkene)
In the case of B7, the Specific Activity (EC50 of test compound based on EC50 of Metastin (45-54)); agonist activity, intracellular calcium ion level, FLIPR (ratio to Metastin (45-54)) was 1.7.

B8: des(1)-Ac-[D-Tyr2,Hyp3,Thr5,Val7,Arg(Me)9,Trp10]MS10 (peptide)
peptide: Ac-[dY][Hyp]NTFVL[Arg(Me)]W-NH2
For the molecule B8, the Specific Activity (EC50 of test compound based on EC50 of Metastin (45-54)); agonist activity, intracellular calcium ion level, FLIPR (ratio to Metastin (45-54)) is 1.7.

B9: des(1)-Ac-[D-Tyr2,Hyp3,Thr5,Phe(4Me)6,Arg(Me)9,Trp10]MS10 (peptide)
peptide: Ac-[dY][Hyp]NT[Phe(4-Me)]GL[Arg(Me)]W-NH2
As for B9, the Specific Activity (EC50 of test compound based on EC50 of Metastin (45-54)); agonist activity, intracellular calcium ion level, FLIPR (ratio to Metastin (45-54)) was found to be 0.9.

B10: des(1)-Ac-[D-Tyr2,Hyp3,Thr5,Gly7Ψ(CH2NH)Leu8,Arg(Me)9,Trp10]MS10 (peptide)
peptide: Ac-[dY][Hyp]NTFGL[Arg(Me)]W-NH2
modifications: also: Gly6-Leu7 -CONH- replaced by -CH2NH-
For the molecule B10, the Specific Activity (EC50 of test compound based on EC50 of Metastin (45-54)); agonist activity, intracellular calcium ion level, FLIPR (ratio to Metastin (45-54)) is 2.9.

B11: des(1)-Ac-[D-Tyr2,Hyp3,Thr5,Phe(3Me)6,Arg(Me)9,Trp10]MS10 (peptide)
peptide: Ac-[dY][Hyp]NT[Phe(3-Me)]GL[Arg(Me)]W-NH2
Consider B11, for which the Specific Activity (EC50 of test compound based on EC50 of Metastin (45-54)); agonist activity, intracellular calcium ion level, FLIPR (ratio to Metastin (45-54)) amounted to 0.8.

B12: des(1)-Ac-[D-Tyr2,Glu3,Thr5,Arg(Me)9,Trp10]MS10 (peptide)
peptide: Ac-[dY]ENTFGL[Arg(Me)]W-NH2
Regarding B12, the Specific Activity (EC50 of test compound based on EC50 of Metastin (45-54)); agonist activity, intracellular calcium ion level, FLIPR (ratio to Metastin (45-54)) stood at 0.5.

B13: des(1)-Ac-[D-Tyr2,Hyp3,Thr5,Pya(4)6,Arg(Me)9,Trp10]MS10 (peptide)
peptide: Ac-[dY][Hyp]NT[4Pal]GL[Arg(Me)]W-NH2
Regarding B13, the Specific Activity (EC50 of test compound based on EC50 of Metastin (45-54)); agonist activity, intracellular calcium ion level, FLIPR (ratio to Metastin (45-54)) amounted to 0.9.

B14: des(1)-Ac-[D-Tyr2,Hyp3,Thr5,Phe6Ψ((R)CHOH-(E)CH═)Gly7,Arg(Me)9,Trp10]MS10 (peptide)
peptide: Ac-[dY][Hyp]NTFGL[Arg(Me)]W-NH2
modifications: also: Phe5-Gly6 -CONH- replaced by (R)-CH(OH)-(E)CH= to Gly α carbon
B14: the Specific Activity (EC50 of test compound based on EC50 of Metastin (45-54)); agonist activity, intracellular calcium ion level, FLIPR (ratio to Metastin (45-54)) is 1.4.

B15: des(1)-Ac-[D-Tyr2,Hyp3,Thr5,Phe6Ψ((R)CHOH-CH2)Gly7,Arg(Me)9,Trp10]MS10 (peptide)
peptide: Ac-[dY][Hyp]NTFGL[Arg(Me)]W-NH2
modifications: also: Phe5-Gly6 -CONH- replaced by (R)-CH(OH)-CH2-
Take B15: the Specific Activity (EC50 of test compound based on EC50 of Metastin (45-54)); agonist activity, intracellular calcium ion level, FLIPR (ratio to Metastin (45-54)) is 0.8.

B16: des(1)-Ac-[D-Tyr2,Hyp3,Thr5,Phe6Ψ(COCH2)Gly7,Arg(Me)9,Trp10]MS10 (peptide)
peptide: Ac-[dY][Hyp]NTFGL[Arg(Me)]W-NH2
modifications: also: Phe5-Gly6 amide bond replaced by -COCH2-
On to B16, for which the Specific Activity (EC50 of test compound based on EC50 of Metastin (45-54)); agonist activity, intracellular calcium ion level, FLIPR (ratio to Metastin (45-54)) was 1.1.

B17: des(1)-Ac-[D-Tyr2,Hyp3,Thr5,Phe6Ψ((E)CH═CH)Gly7,Arg(Me)9,Trp10]MS10 (peptide)
peptide: Ac-[dY][Hyp]NTFGL[Arg(Me)]W-NH2
modifications: also: Phe5-Gly6 -CONH- replaced by (E) CH=CH
Regarding B17, the Specific Activity (EC50 of test compound based on EC50 of Metastin (45-54)); agonist activity, intracellular calcium ion level, FLIPR (ratio to Metastin (45-54)) was 0.7.

B18: des(1)-Ac-[D-Tyr2,Hyp3,Thr5,Pya(3)6,Arg(Me)9,Trp10]MS10 (peptide)
peptide: Ac-[dY][Hyp]NT[3Pal]GL[Arg(Me)]W-NH2
Turning to B18, the Specific Activity (EC50 of test compound based on EC50 of Metastin (45-54)); agonist activity, intracellular calcium ion level, FLIPR (ratio to Metastin (45-54)) turned out to be 0.9.

B19: des(1)-Ac-[D-Tyr2,Hyp3,Thr5,Phe6Ψ(CH2O)Gly7,Arg(Me)9,Trp10]MS10 (peptide)
peptide: Ac-[dY][Hyp]NTFGL[Arg(Me)]W-NH2
modifications: also: Phe5-Gly6 amide bond replaced by -CH2O-
For B19, the Specific Activity (EC50 of test compound based on EC50 of Metastin (45-54)); agonist activity, intracellular calcium ion level, FLIPR (ratio to Metastin (45-54)) stood at 0.5.

B20: des(1)-Ac-[D-Tyr2,Hyp3,Thr5,αMePhe6,Arg(Me)9,Trp10]MS10 (peptide)
peptide: Ac-[dY][Hyp]NT[αMeF]GL[Arg(Me)]W-NH2
SMILES: CNC(=N)NCCC[C@H](NC(=O)[C@H](CC(C)C)NC(=O)CNC(=O)[C@](C)(Cc1ccccc1)NC(=O)[C@@H](NC(=O)[C@H](CC(N)=O)NC(=O)[C@@H]1C[C@@H](O)CN1C(=O)[C@@H](Cc1ccc(O)cc1)NC(C)=O)[C@@H](C)O)C(=O)N[C@@H](Cc1c[nH]c2ccccc12)C(N)=O
With B20, the Specific Activity (EC50 of test compound based on EC50 of Metastin (45-54)); agonist activity, intracellular calcium ion level, FLIPR (ratio to Metastin (45-54)) stood at 3.8.

B21: des(1)-Ac-[D-Tyr2,Glu3,Thr5,Cha6,Arg(Me)9,Trp10]MS10 (peptide)
peptide: Ac-[dY]ENT[Cha]GL[Arg(Me)]W-NH2
B21: the Specific Activity (EC50 of test compound based on EC50 of Metastin (45-54)); agonist activity, intracellular calcium ion level, FLIPR (ratio to Metastin (45-54)) stood at 0.6.

B22: des(1)-Ac-[D-Tyr2,Hyp3,Thr5,Phe6Ψ((S)CHOH-CH2)Gly7,Arg(Me)9,Trp10]MS10 (peptide)
peptide: Ac-[dY][Hyp]NTFGL[Arg(Me)]W-NH2
modifications: also: Phe5-Gly6 amide bond replaced by -CH(OH)-CH2- ((S)-CHOH)
Regarding B22, the Specific Activity (EC50 of test compound based on EC50 of Metastin (45-54)); agonist activity, intracellular calcium ion level, FLIPR (ratio to Metastin (45-54)) is 1.2.

Source of the values: patent US7786083B2, “Metastin derivatives and use thereof” (Takeda Pharmaceutical Company Limited, priority 2006, dated 2010).
